This passage reports abundance fitness results from the Human Domainome abundance scans (Beltran et al. 2025).

± gives the uncertainty stated by the source.

The data set in a line: abundance fitness (aPCA) (normalised: wild type 0, dead -1); higher = more abundant; growth selection in yeast, the domain comes from the species named. The conditions noted are these: Homo sapiens.
For the substance “NEDD4-like E3 ubiquitin-protein ligase WWP2 S487I, O00308”, the abundance fitness was -0.038 ± 0.074.
“NEDD4-like E3 ubiquitin-protein ligase WWP2 S487K, O00308” yielded an abundance fitness of 0.016 ± 0.038.
“NEDD4-like E3 ubiquitin-protein ligase WWP2 S487L, O00308” displayed an abundance fitness of -0.067 ± 0.04.
“NEDD4-like E3 ubiquitin-protein ligase WWP2 S487M, O00308” displayed an abundance fitness of -0.024 ± 0.057.
For “NEDD4-like E3 ubiquitin-protein ligase WWP2 S487N, O00308”, the abundance fitness was -0.034 ± 0.04.
Regarding “NEDD4-like E3 ubiquitin-protein ligase WWP2 S487Q, O00308”, the abundance fitness was -0.024 ± 0.061.
“NEDD4-like E3 ubiquitin-protein ligase WWP2 S487R, O00308”: the abundance fitness is -0.006 ± 0.034.
For “NEDD4-like E3 ubiquitin-protein ligase WWP2 S487T, O00308” the value was 0.058 ± 0.059.
With “NEDD4-like E3 ubiquitin-protein ligase WWP2 S487V, O00308”, the abundance fitness was -0.034 ± 0.035.
For “NEDD4-like E3 ubiquitin-protein ligase WWP2 S487W, O00308” the value was -0.149 ± 0.05; for “NEDD4-like E3 ubiquitin-protein ligase WWP2 T455A, O00308”, -0.659 ± 0.061.
Consider “NEDD4-like E3 ubiquitin-protein ligase WWP2 T455C, O00308”, for which the abundance fitness is -0.339 ± 0.068.
With “NEDD4-like E3 ubiquitin-protein ligase WWP2 T455E, O00308”, the abundance fitness was -0.563 ± 0.18.
In turn, “NEDD4-like E3 ubiquitin-protein ligase WWP2 T455F, O00308” had an abundance fitness of -0.912 ± 0.14.
The substance “NEDD4-like E3 ubiquitin-protein ligase WWP2 T455G, O00308” gave an abundance fitness of -0.379 ± 0.045.
The substance “NEDD4-like E3 ubiquitin-protein ligase WWP2 T455I, O00308” had an abundance fitness of -0.529 ± 0.08.
Consider “NEDD4-like E3 ubiquitin-protein ligase WWP2 T455K, O00308”, for which the abundance fitness is -0.628 ± 0.082.
“NEDD4-like E3 ubiquitin-protein ligase WWP2 T455L, O00308” came in with an abundance fitness of -0.258 ± 0.048.
Take “NEDD4-like E3 ubiquitin-protein ligase WWP2 T455M, O00308”: the abundance fitness is -0.415 ± 0.066.
To “NEDD4-like E3 ubiquitin-protein ligase WWP2 T455N, O00308” belongs -0.147 ± 0.073; to “NEDD4-like E3 ubiquitin-protein ligase WWP2 T455P, O00308”, -0.968 ± 0.071.
“NEDD4-like E3 ubiquitin-protein ligase WWP2 T455R, O00308” returned an abundance fitness of -0.762 ± 0.038.
On to “NEDD4-like E3 ubiquitin-protein ligase WWP2 T455S, O00308”, for which the abundance fitness was -0.115 ± 0.041.
For “NEDD4-like E3 ubiquitin-protein ligase WWP2 T455V, O00308” the value was -0.678 ± 0.05; for “NEDD4-like E3 ubiquitin-protein ligase WWP2 T455W, O00308”, -0.866 ± 0.1.
In the case of “NEDD4-like E3 ubiquitin-protein ligase WWP2 T455Y, O00308”, the abundance fitness is -0.62 ± 0.07.
On to “NEDD4-like E3 ubiquitin-protein ligase WWP2 T467A, O00308”, for which the abundance fitness was -0.098 ± 0.12.
For “NEDD4-like E3 ubiquitin-protein ligase WWP2 T467I, O00308”, the abundance fitness was -0.421 ± 0.26.
“NEDD4-like E3 ubiquitin-protein ligase WWP2 T467R, O00308”: the abundance fitness is -0.405 ± 0.18.
Turning to “NEDD4-like E3 ubiquitin-protein ligase WWP2 T467S, O00308”, the abundance fitness is -0.136 ± 0.056.
To “NEDD4-like E3 ubiquitin-protein ligase WWP2 T469C, O00308” belongs -0.078 ± 0.057; to “NEDD4-like E3 ubiquitin-protein ligase WWP2 T469D, O00308”, -0.257 ± 0.055.
Substance “NEDD4-like E3 ubiquitin-protein ligase WWP2 T469E, O00308” yielded an abundance fitness of -0.228 ± 0.034.
As to “NEDD4-like E3 ubiquitin-protein ligase WWP2 T469F, O00308”, the abundance fitness was -0.215 ± 0.068.
To “NEDD4-like E3 ubiquitin-protein ligase WWP2 T469G, O00308” belongs -0.346 ± 0.054; to “NEDD4-like E3 ubiquitin-protein ligase WWP2 T469H, O00308”, -0.26 ± 0.036.
For “NEDD4-like E3 ubiquitin-protein ligase WWP2 T469M, O00308” the value was -0.096 ± 0.053.
As to “NEDD4-like E3 ubiquitin-protein ligase WWP2 T469N, O00308”, the abundance fitness is -0.093 ± 0.072.
“NEDD4-like E3 ubiquitin-protein ligase WWP2 T469P, O00308” came in with an abundance fitness of -1.16 ± 0.13.
To “NEDD4-like E3 ubiquitin-protein ligase WWP2 T469Q, O00308” belongs -0.196 ± 0.06; to “NEDD4-like E3 ubiquitin-protein ligase WWP2 T469R, O00308”, -0.243 ± 0.038.
“NEDD4-like E3 ubiquitin-protein ligase WWP2 T469S, O00308” yielded an abundance fitness of -0.032 ± 0.041.
Substance “NEDD4-like E3 ubiquitin-protein ligase WWP2 T469V, O00308” gave an abundance fitness of -0.151 ± 0.038.
Substance “NEDD4-like E3 ubiquitin-protein ligase WWP2 T469W, O00308” registered an abundance fitness of -0.502 ± 0.036.
To “NEDD4-like E3 ubiquitin-protein ligase WWP2 T469Y, O00308” belongs -0.264 ± 0.062.
The substance “NEDD4-like E3 ubiquitin-protein ligase WWP2 T470A, O00308” had an abundance fitness of -0.265 ± 0.035.
For “NEDD4-like E3 ubiquitin-protein ligase WWP2 T470C, O00308” the value was -0.164 ± 0.069; for “NEDD4-like E3 ubiquitin-protein ligase WWP2 T470D, O00308”, -0.653 ± 0.072.
In turn, “NEDD4-like E3 ubiquitin-protein ligase WWP2 T470E, O00308” had an abundance fitness of -0.218 ± 0.068.
In turn, “NEDD4-like E3 ubiquitin-protein ligase WWP2 T470I, O00308” came in with an abundance fitness of -0.734 ± 0.15.
In turn, “NEDD4-like E3 ubiquitin-protein ligase WWP2 T470K, O00308” gave an abundance fitness of -0.356 ± 0.039.
“NEDD4-like E3 ubiquitin-protein ligase WWP2 T470L, O00308” showed an abundance fitness of -0.437 ± 0.04.
For “NEDD4-like E3 ubiquitin-protein ligase WWP2 T470M, O00308” the value was -0.398 ± 0.048.
On to “NEDD4-like E3 ubiquitin-protein ligase WWP2 T470N, O00308”, for which the abundance fitness is -0.383 ± 0.11.
“NEDD4-like E3 ubiquitin-protein ligase WWP2 T470P, O00308” had an abundance fitness of -0.906 ± 0.14.
For “NEDD4-like E3 ubiquitin-protein ligase WWP2 T470Q, O00308” the value was -0.42 ± 0.056; for “NEDD4-like E3 ubiquitin-protein ligase WWP2 T470R, O00308”, -0.446 ± 0.044.
Turning to “NEDD4-like E3 ubiquitin-protein ligase WWP2 T470S, O00308”, the abundance fitness is -0.234 ± 0.036.
With “NEDD4-like E3 ubiquitin-protein ligase WWP2 T470V, O00308”, the abundance fitness was -0.263 ± 0.046.
On to “NEDD4-like E3 ubiquitin-protein ligase WWP2 T470Y, O00308”, for which the abundance fitness was -0.772 ± 0.12.
In the case of “NEDD4-like E3 ubiquitin-protein ligase WWP2 T471A, O00308”, the abundance fitness is -0.725 ± 0.064.
For “NEDD4-like E3 ubiquitin-protein ligase WWP2 T471C, O00308” the value was -0.59 ± 0.1; for “NEDD4-like E3 ubiquitin-protein ligase WWP2 T471D, O00308”, -0.647 ± 0.057.
“NEDD4-like E3 ubiquitin-protein ligase WWP2 T471E, O00308”: the abundance fitness is -0.975 ± 0.11.
Consider “NEDD4-like E3 ubiquitin-protein ligase WWP2 T471F, O00308”, for which the abundance fitness was -0.556 ± 0.09.
As for “NEDD4-like E3 ubiquitin-protein ligase WWP2 T471G, O00308”, the abundance fitness is -0.673 ± 0.052.
For “NEDD4-like E3 ubiquitin-protein ligase WWP2 T471H, O00308”, the abundance fitness is -0.259 ± 0.057.
As for “NEDD4-like E3 ubiquitin-protein ligase WWP2 T471I, O00308”, the abundance fitness was -0.701 ± 0.05.
Take “NEDD4-like E3 ubiquitin-protein ligase WWP2 T471K, O00308”: the abundance fitness is -0.734 ± 0.065.
Consider “NEDD4-like E3 ubiquitin-protein ligase WWP2 T471L, O00308”, for which the abundance fitness was -0.887 ± 0.043.
Regarding “NEDD4-like E3 ubiquitin-protein ligase WWP2 T471M, O00308”, the abundance fitness was -0.798 ± 0.094.
In turn, “NEDD4-like E3 ubiquitin-protein ligase WWP2 T471N, O00308” gave an abundance fitness of -0.81 ± 0.12.
“NEDD4-like E3 ubiquitin-protein ligase WWP2 T471P, O00308”: the abundance fitness is -1.15 ± 0.13.
As for “NEDD4-like E3 ubiquitin-protein ligase WWP2 T471Q, O00308”, the abundance fitness was -0.291 ± 0.073.
For “NEDD4-like E3 ubiquitin-protein ligase WWP2 T471R, O00308”, the abundance fitness was -0.62 ± 0.05.
“NEDD4-like E3 ubiquitin-protein ligase WWP2 T471V, O00308” returned an abundance fitness of -0.546 ± 0.054.
“NEDD4-like E3 ubiquitin-protein ligase WWP2 T471W, O00308” yielded an abundance fitness of -0.521 ± 0.05.
The substance “NEDD4-like E3 ubiquitin-protein ligase WWP2 T471Y, O00308” displayed an abundance fitness of -0.786 ± 0.14.
“NEDD4-like E3 ubiquitin-protein ligase WWP2 T483A, O00308” displayed an abundance fitness of -0.041 ± 0.034.
